The supplement of paper PMC10567573

B1: RAB11B (parent)
chain: AVPTDEARAFAEKNNLSFIETSAL
B2: ANKRD44 (parent)
chain: FHCIETLVTTGANVNETDDWGRTA

Variants of: B1
Assay: protein stability index of a GFP-peptide fusion (GPS, HEK-293T) (PSI 1-6); higher = more stable
Details: c terminus: a fixed tail appended
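Also: lentivirally expressed fusions sorted by FACS into six bins by GFP to DsRed ratio, PSI derived from sequencing read proportions per bin multiplied by bin number.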

Protein stability index, by site and new letter:
V2: C 3.02 | M 3.41 | N 3.85 | H 3.86 | P 3.2 | K 2.52 | D 3.41 | E 3.96 | L 3.28 | F 2.64 | G 2.74 | I 2.74 | A 2.55
A1: Y 2.69 | Q 2.63 | K 2.57 | I 2.07 | R 2.26 | P 3.02 | E 3.65 | N 2.88 | S 2.65 | V 2.62 | D 2.95 | F 2.66 | W 2.26 | G 3.06 | M 2.64 | T 2.74 | H 2.9 | C 2.43 | L 2.67

Variants of: B2
Assay: as above
Details: c terminus: a fixed tail appended

Protein stability index, by site and new letter:
T10: C 1.96 | W 2.68 | G 1.92 | V 2.17 | N 2.66 | Q 2.63 | A 1.72 | I 1.7 | H 2.08 | D 3.46 | K 2.24 | M 1.71
T23: C 1.87 | I 1.86 | E 2.71 | W 1.56 | H 2.42 | M 1.38 | P 2.13 | D 2.71 | F 2.06 | Y 1.83 | R 2.05 | A 2.27 | V 2.14 | G 2.42 | K 2.26
N13: F 3.16 | G 2.21 | E 1.69 | T 2.18 | W 1.77 | D 2.51 | A 2.56 | H 2.13 | M 1.5 | K 2.36 | L 2.11 | I 2.31
A24: K 2.46 | M 2.39 | T 2.21 | D 2.74 | P 2.63 | S 2.06 | H 2.39 | I 1.88 | L 1.91 | C 1.98 | E 2.27 | Y 1.78 | R 2.37
I4: R 2.61 | N 2.87 | Q 2 | G 2.66 | K 2.11 | W 3.86 | P 2.19 | D 3.41 | H 2.15 | S 2.69 | E 3.59 | F 2.36 | M 2.16 | A 2.1
T17: R 1.71 | E 2.84 | L 1.76 | G 1.86 | P 2.6 | A 1.92 | I 2.24 | C 2.14 | N 1.86 | M 1.76 | V 2 | Q 2.27 | Y 1.9 | S 2.61
A12: W 3.07 | T 2.82 | L 2.45 | M 2.14 | Y 1.88 | C 1.1 | K 2.07 | S 2.73 | D 1.87 | E 2.31 | G 1.52 | N 2.07 | F 2.61 | I 1.7
V8: N 2.86 | F 2.26 | R 2.15 | M 2.2 | H 2.45 | I 1.8 | E 3.35 | K 2.42 | P 3.48 | L 1.4 | C 2.03 | Q 3
H2: Q 3.27 | N 3.37 | L 2.31 | F 1.8 | I 1.62 | G 3.71 | A 2.89 | R 3.46 | V 1.74 | D 4.54 | Y 1.89 | K 3.34 | W 1.68 | E 3.9
R22: I 1.9 | E 2.91 | V 2.29 | C 1.76 | W 1.49 | G 1.88 | M 2.27 | H 1.98 | N 2.35 | Y 1.95 | D 3.09 | P 3.06 | K 2.36 | Q 2.7
E16: M 1.56
